Drawing on article PMC4340967, “Histidine 352 (His^352) and Tryptophan 355 (Trp^355) Are Essential for Flax UGT74S1 Glucosylation Activity toward Secoisolariciresinol” (PLoS ONE, 2015), this text covers Km, kcat and kcat/Km for three proteins.

Substrate in data set [1]: COc1cc(C[C@@H](CO)[C@H](CO)Cc2ccc(O)c(OC)c2)ccc1O
The experiment in a line: UPLC-MS assay of SMG formation, Lineweaver-Burk. Type of data set: biochemical, Linum usitatissimum. Conditions: 70-1650 µM SECO, 1.64 mM UDP-glucose fixed, 1 mM NaCl, pH 8.0, 30°C, for SMG production. The source says:
(§1) UPLC-MS assay of SMG formation, Lineweaver-Burk on UGT74S1 (wild type, W)

Substrate in data set [2]: O=c1ccn([C@@H]2O[C@H](CO[P@@](=O)(O)O[P@@](=O)(O)O[C@H]3O[C@H](CO)[C@@H](O)[C@H](O)[C@H]3O)[C@@H](O)[C@H]2O)c(=O)[nH]1
The data set is described as follows: UPLC-MS assay of SMG formation, Lineweaver-Burk. Type of data set: biochemical, Linum usitatissimum. Conditions: 0.82-8.2 mM UDP-glucose, 280 µM SECO fixed, 1 mM NaCl, pH 8.0, 30°C, for SMG production.
From the text: as §1

B1: UGT74S1 (wild type, W) (Linum usitatissimum) (protein)
chain: MAGDEREKAHCLVVPAAAQGHFTPLLQFSKRLIPKRIRVTLALTRFIHSTMTVTAQSGIHIDTISDGFDHSGLILQDPEHYSQTFRRVGSETLTDLIRKQSESRHPVHCIIYDASMPWFLDVAKRFGIVGAAFLTQSCAVNAIYYHLREGTIKRPVVSDPAAGTLVIDGLPPLEVSDLPSFIWDDLHTEFLAAHLRQFSNDGADWVFCNTVYQLELEAVDWLTKQWLINFRTIGPTIPSFYLDKQIPDDKDYDISIFNPQNQTCMNWLQSKPDGSVVYVSFGSLARLSPQQTEELYFGLKNSNHYFLWVVRESEVAKLPKEEYLSGEKGLVVSWCSQLQVLASGKVGCFVTHCGWNSTLEALSLGVPMVAMPECGDQLTNAKFIKDVWKTGVRAEADDGKGIMWGMIKREVIERCIREVMEGEETRRNADKWGKIIKEAVVEGGSSDKNTEDFATSLINFAETFQFSC
One may read the Km as the concentration of substrate that gives half-maximal velocity. Broadly, the kcat is the number of substrate molecules converted per active site and unit of time at saturation. One may read the kcat/Km as the second-order rate constant that governs catalysis at low substrate concentration. As to B1, in data set [1], the Km came to 717 µM, the kcat worked out at 0.23 s⁻¹ and the kcat/Km was 321 M⁻¹ s⁻¹. Moreover, in data set [2], the Km worked out at 1103 µM, the kcat was determined as 0.135 s⁻¹ and the kcat/Km was found to be 122 M⁻¹ s⁻¹.

B2: UGT74S1 (wild type, W) (Linum usitatissimum; C335A) (protein)
chain: MAGDEREKAHCLVVPAAAQGHFTPLLQFSKRLIPKRIRVTLALTRFIHSTMTVTAQSGIHIDTISDGFDHSGLILQDPEHYSQTFRRVGSETLTDLIRKQSESRHPVHCIIYDASMPWFLDVAKRFGIVGAAFLTQSCAVNAIYYHLREGTIKRPVVSDPAAGTLVIDGLPPLEVSDLPSFIWDDLHTEFLAAHLRQFSNDGADWVFCNTVYQLELEAVDWLTKQWLINFRTIGPTIPSFYLDKQIPDDKDYDISIFNPQNQTCMNWLQSKPDGSVVYVSFGSLARLSPQQTEELYFGLKNSNHYFLWVVRESEVAKLPKEEYLSGEKGLVVSWASQLQVLASGKVGCFVTHCGWNSTLEALSLGVPMVAMPECGDQLTNAKFIKDVWKTGVRAEADDGKGIMWGMIKREVIERCIREVMEGEETRRNADKWGKIIKEAVVEGGSSDKNTEDFATSLINFAETFQFSC
Take B2: in data set [1], the Km was 1538 µM, the kcat is 0.0494 s⁻¹ and the kcat/Km amounted to 32.1 M⁻¹ s⁻¹. Further, in data set [2], the Km amounted to 3443 µM, the kcat came out at 0.256 s⁻¹ and the kcat/Km was 74.3 M⁻¹ s⁻¹.

B3: UGT74S1 (wild type, W) (Linum usitatissimum; Q337A) (protein)
chain: MAGDEREKAHCLVVPAAAQGHFTPLLQFSKRLIPKRIRVTLALTRFIHSTMTVTAQSGIHIDTISDGFDHSGLILQDPEHYSQTFRRVGSETLTDLIRKQSESRHPVHCIIYDASMPWFLDVAKRFGIVGAAFLTQSCAVNAIYYHLREGTIKRPVVSDPAAGTLVIDGLPPLEVSDLPSFIWDDLHTEFLAAHLRQFSNDGADWVFCNTVYQLELEAVDWLTKQWLINFRTIGPTIPSFYLDKQIPDDKDYDISIFNPQNQTCMNWLQSKPDGSVVYVSFGSLARLSPQQTEELYFGLKNSNHYFLWVVRESEVAKLPKEEYLSGEKGLVVSWCSALQVLASGKVGCFVTHCGWNSTLEALSLGVPMVAMPECGDQLTNAKFIKDVWKTGVRAEADDGKGIMWGMIKREVIERCIREVMEGEETRRNADKWGKIIKEAVVEGGSSDKNTEDFATSLINFAETFQFSC
B3: in data set [1], the Km was 2716 µM, the kcat was determined as 0.0077 s⁻¹ and the kcat/Km is 2.85 M⁻¹ s⁻¹. In data set [2], the Km was 27610 µM, the kcat amounted to 0.547 s⁻¹ and the catalytic efficiency (kcat/Km) stood at 19.8 M⁻¹ s⁻¹.
